The values below come from paper PMC4772074 (Biochemistry, 2015).

This data set deals with the molecule itself. As to the kind of experiment: SEC-MALS. (Size exclusion chromatography separates by hydrodynamic size, large species first.)

B1: E. coli CheA (enzyme)
chain: MSMDISDFYQTFFDEADELLADMEQHLLVLQPEAPDAEQLNAIFRAAHSIKGGAGTFGFSVLQETTHLMENLLDEARRGEMQLNTDIINLFLETKDIMQEQLDAYKQSQEPDAASFDYICQALRQLALEAKGETPSAVTRLSVVAKSEPQDEQSRSQSPRRIILSRLKAGEVDLLEEELGHLTTLTDVVKGADSLSAILPGDIAEDDITAVLCFVIEADQITFETVEVSPKISTPPVLKLAAEQAPTGRVEREKTTRSNESTSIRVAVEKVDQLINLVGELVITQSMLAQRSSELDPVNHGDLITSMGQLQRNARDLQESVMSIRMMPMEYVFSRYPRLVRDLAGKLGKQVELTLVGSSTELDKSLIERIIDPLTHLVRNSLDHGIELPEKRLAAGKNSVGNLILSAEHQGGNICIEVTDDGAGLNRERILAKAASQGLTVSENMSDDEVAMLIFAPGFSTAEQVTDVSGRGVGMDVVKRNIQKMGGHVEIQSKQGTGTTIRILLPLTLAILDGMSVRVADEVFILPLNAVMESLQPREADLHPLAGGERVLEVRGEYLPIVELWKVFNVAGAKTEATQGIVVILQSGGRRYALLVDQLIGQHQVVVKNLESNYRKVPGISAATILGDGSVALIVDVSALQAINREQRMANTAA
By stoichiometry N is commonly meant the number of molecules, sites or subunits per partner or assembly. For the protein B1, the “stoichiometry N” value came out at 2.
